± gives the uncertainty stated by the source.
Experiment: protein stability index of a GFP-peptide fusion (yeast GPS) (PSI 1-4); higher = more stable; sorted into four equal gates, so the index is relative within each strain
Method in brief: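 Mid-log yeast cultures in leucine-free medium, carrying a pooled plasmid library, were sorted into four equal gates by their GFP/Cherry fluorescence ratio. Each plasmid expressed Cherry along with GFP fused upstream of a tiled 17-residue yeast protein peptide. Plasmids recovered from each gate were PCR-amplified and Illumina-sequenced, with reads assigned to strains by barcodes. The protein stability index was obtained by summing each gate's read frequency weighted by its gate number.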

Sequence	protein stability index (doa10∆)	protein stability index (pdr5∆)	protein stability index (san1∆)	protein stability index (ubr1∆)
RLPTFLKHKSICSCVNR [RPP1]	1.84 ± 0.086	2.24 ± 0.11	1.98 ± 0.13	2.83 ± 0.08
RLRALQLYFQKNGAQDL [RRI2]	1.7 ± 0.06	1.95 ± 0.076	1.95 ± 0.087	2.44 ± 0.044
RLTVSARDAPTKISTLA [QCR2]	3.2 ± 0.096	3.17 ± 0.069	3.04 ± 0.066	3.19 ± 0.055
RLVIKEALVERRRAFKR [RPB4]	3.13 ± 0.29	2.67 ± 0.14	2.8 ± 0.22	–
RLWHTLKYYQDLKNTRM [SNF5]	1.77 ± 0.057	2.02 ± 0.048	2.01 ± 0.06	1.7 ± 0.051
RMMGCVKKQKSARGIET [FAS2]	1.59 ± 0.09	1.4 ± 0.1	1.36 ± 0.16	1.48 ± 0.064
RMRLRALETENMEIRNL [GRR1]	3.09 ± 0.069	3.02 ± 0.051	2.78 ± 0.055	3.04 ± 0.041
RMSIKLLRLASKSTSMK [POP1]	2.49 ± 0.043	2.6 ± 0.047	2.48 ± 0.053	2.56 ± 0.04
RMTIRTRGRSATIRETY [RRP43]	2.96 ± 0.057	2.64 ± 0.061	2.67 ± 0.062	2.2 ± 0.049
RNARATRAAKIAPRPLD [RPL13A]	–	–	3.33 ± 0.1	–
RNNHNSNTSTSKMLDAA [SNF12]	3.01 ± 0.058	3.04 ± 0.044	3.22 ± 0.092	3.01 ± 0.048
RNNSNNKTSNNNNVTAV [SWI1]	2.73 ± 0.05	2.6 ± 0.054	1.74 ± 0.096	2.81 ± 0.044
RNPARLMETLRTLRRKG [RPB2]	2.28 ± 0.077	3.06 ± 0.086	2.47 ± 0.089	2.87 ± 0.13
RNSFIRDMIMKRNSDKV [ITC1]	2.84 ± 0.16	2.86 ± 0.14	2.29 ± 0.16	2.83 ± 0.2
RNSLETKLTTCKRELAF [YIL149C/MLP2]	2.09 ± 0.068	1.99 ± 0.077	1.88 ± 0.09	2.19 ± 0.053
RNVVEDINQAKDFIENV [BRN1]	3.25 ± 0.13	3.31 ± 0.097	3.24 ± 0.078	3.25 ± 0.072
RPTGGANMATVPSTTNV [MED6]	2.66 ± 0.062	2.93 ± 0.06	2.42 ± 0.17	2.91 ± 0.04
RQCFREKANDIGFNKFR [RPS29A]	3.32 ± 0.15	3.3 ± 0.13	3 ± 0.098	2.92 ± 0.098
RQELQMQRQQQGISGSQ [SNF2]	2.65 ± 0.049	2.95 ± 0.046	2.94 ± 0.042	2.9 ± 0.041
RQFLHELRRPGVDNLRR [RPO31]	1.27 ± 0.078	1.37 ± 0.097	1.25 ± 0.23	1.64 ± 0.093

Sequence	protein stability index (doa10∆)	protein stability index (pdr5∆)	protein stability index (san1∆)	protein stability index (ubr1∆)
RQLSPHTLMSFAGEAGD [PRE1]	1.69 ± 0.052	1.87 ± 0.057	1.83 ± 0.12	1.96 ± 0.041
RQQQQRSILQSLNPALQ [SWI1]	1.76 ± 0.051	1.92 ± 0.06	1.54 ± 0.084	1.89 ± 0.053
RRANFYKENEAMLRENI [SNF12]	3.29 ± 0.094	3.2 ± 0.14	3.33 ± 0.074	3.39 ± 0.11
RREVQIQLQEFLLSAMT [NSL1]	1.42 ± 0.052	1.68 ± 0.11	1.47 ± 0.12	1.68 ± 0.063
RRLHKVLRPFLLRRLKK [SNF2]	2.09 ± 0.078	2.53 ± 0.1	1.89 ± 0.12	2.53 ± 0.07
RRLLNLYNDNNKNNNNR [SWI1]	3.11 ± 0.12	2.86 ± 0.089	2.22 ± 0.16	2.99 ± 0.058
RRNRYKTYYGIHCLAVR [RPN7]	1.23 ± 0.05	1.38 ± 0.073	1.29 ± 0.13	1.17 ± 0.044
RRVKQLDDITDSNTTEI [SIR4]	3.27 ± 0.086	3.14 ± 0.072	2.83 ± 0.069	3 ± 0.065
RSGALIKFKKCDGDTVW [SSN2]	2.85 ± 0.053	2.9 ± 0.048	2.62 ± 0.048	2.71 ± 0.043
RSLCEVLVYDDKLEKVT [RPC34]	2.32 ± 0.09	2.62 ± 0.1	2.33 ± 0.1	2.84 ± 0.093
RSLDENRLEIKYHNDLI [SMC1]	–	3.2 ± 0.29	2.78 ± 0.26	3.14 ± 0.24
RSLGLQQVVCIFSYGPH [POP6]	1.51 ± 0.028	1.7 ± 0.037	1.57 ± 0.049	1.64 ± 0.026
RSMIEHARTAAVTHNLY [PUP2]	2.16 ± 0.13	2.98 ± 0.22	2.46 ± 0.13	2.67 ± 0.083
RSNQYQRGKMHGLKQLR [NUT2]	2.67 ± 0.1	2.91 ± 0.078	1.48 ± 0.28	1.74 ± 0.076
RSNTGALMRCSFEETVE [RPO21]	3 ± 0.074	3.02 ± 0.077	3.06 ± 0.061	3.01 ± 0.067
RSPLVTPMDESSYDLLF [SRP72]	2.71 ± 0.13	3.06 ± 0.1	3.29 ± 0.12	3.2 ± 0.08
RSQISEKDAKINKLMEK [SIR4]	3.13 ± 0.087	3.12 ± 0.11	3.17 ± 0.062	2.27 ± 0.047
RSRISSPHGLINLNVDD [SRB4]	2.47 ± 0.052	2.48 ± 0.061	2.61 ± 0.075	2.15 ± 0.043
RSSEEINSDNQNIILRS [RPN3]	3.03 ± 0.26	3.24 ± 0.19	–	3.2 ± 0.19

From the supplement of paper PMC9732359
